Assay results: PMC11783875
Each block holds one molecule with its values, some of them ahead of it.

Tests used:
[1] = target: H3-PsbS (PsbS with the H3 motif I74, Y75, E76 deleted) (Arabidopsis thaliana) (UniProt Q9XF91); experiment: cross-linking; isolated thylakoids (60 ug Chl) in the recovery-2 state (darkness after illumination); 0.1 mM DTSSP for 1 min in reaction buffer pH 8.0; SDS-PAGE and western blot with PsbS antibody; densitometry of dimer against total PsbS
[2] = target: H3-PsbS (PsbS with the H3 motif I74, Y75, E76 deleted) (Arabidopsis thaliana) (UniProt Q9XF91); experiment: cross-linking; isolated thylakoids (60 ug Chl) in the light state (700 umol photons m^-2 s^-1); 0.1 mM DTSSP for 1 min in reaction buffer pH 8.0; SDS-PAGE and western blot with PsbS antibody; densitometry of dimer against total PsbS
[3] = target: E69QE173Q-PsbS (Arabidopsis thaliana); experiment: cross-linking; isolated thylakoids (60 ug Chl) in the recovery-1 state (darkness after illumination); 0.1 mM DTSSP for 1 min in reaction buffer pH 8.0; SDS-PAGE and western blot with PsbS antibody; densitometry of dimer against total PsbS
[4] = target: E69QE173Q-PsbS (Arabidopsis thaliana); experiment: cross-linking; isolated thylakoids (60 ug Chl) in the recovery-2 state (darkness after illumination); 0.1 mM DTSSP for 1 min in reaction buffer pH 8.0; SDS-PAGE and western blot with PsbS antibody; densitometry of dimer against total PsbS
[5] = target: E69QE173Q-PsbS (Arabidopsis thaliana); experiment: cross-linking; isolated thylakoids (60 ug Chl) in the light state (700 umol photons m^-2 s^-1); 0.1 mM DTSSP for 1 min in reaction buffer pH 8.0; SDS-PAGE and western blot with PsbS antibody; densitometry of dimer against total PsbS
[6] = target: E69QE173Q-PsbS (Arabidopsis thaliana); experiment: cross-linking; isolated thylakoids (60 ug Chl) in the dark-adapted state; 0.1 mM DTSSP for 1 min in reaction buffer pH 8.0; SDS-PAGE and western blot with PsbS antibody; densitometry of dimer against total PsbS
[7] = target: T1, PsbS protein (wild type, Arabidopsis thaliana) (Arabidopsis thaliana (endogenous in wild-type thylakoids)), Q9XF91; experiment: as above; settings: remark: other sources report otherwise
T1 chain: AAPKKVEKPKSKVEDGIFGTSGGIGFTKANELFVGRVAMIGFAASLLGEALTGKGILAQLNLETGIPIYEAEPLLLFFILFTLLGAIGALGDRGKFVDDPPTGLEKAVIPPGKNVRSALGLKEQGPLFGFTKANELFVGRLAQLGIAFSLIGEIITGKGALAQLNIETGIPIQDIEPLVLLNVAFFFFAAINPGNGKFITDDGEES

[8] = target: T1, PsbS protein (wild type, Arabidopsis …); experiment: cross-linking; isolated thylakoids (60 ug Chl) in the recovery-1 state (darkness after illumination); 0.1 mM DTSSP for 1 min in reaction buffer pH 8.0; SDS-PAGE and western blot with PsbS antibody; densitometry of dimer against total PsbS; settings: remark: other sources report otherwise
[9] = target: T1, PsbS protein (wild type, Arabidopsis …); experiment: cross-linking; isolated thylakoids (60 ug Chl) in the light state (700 umol photons m^-2 s^-1); 0.1 mM DTSSP for 1 min in reaction buffer pH 8.0; SDS-PAGE and western blot with PsbS antibody; densitometry of dimer against total PsbS; settings: remark: other sources report otherwise
[10] = target: T1, PsbS protein (wild type, Arabidopsis …); experiment: cross-linking; isolated thylakoids (60 ug Chl) in the recovery-2 state (darkness after illumination); 0.1 mM DTSSP for 1 min in reaction buffer pH 8.0; SDS-PAGE and western blot with PsbS antibody; densitometry of dimer against total PsbS; settings: remark: other sources report otherwise

total recovery to PsbS dimers, percent of the WT level (% of the WT level) [1]: 62.6 | dimer-to-monomer transition, percent lower than the WT (% lower than WT) [2]: 50.8
Molecule: H3-PsbS (PsbS with the H3 motif I74, Y75, E76 deleted) (from UniProt Q9XF91 60-265) (natural protein)

cross-linked PsbS dimer content relative to total PsbS [3]: 21.4% | cross-linked PsbS dimer content relative to total PsbS [4]: 25.6% | cross-linked PsbS dimer content relative to total PsbS [5]: 18.6% | cross-linked PsbS dimer content relative to total PsbS [6]: 21.7%
Molecule: E69QE173Q-PsbS (natural protein)

cross-linked PsbS dimer content relative to total PsbS [7]: 44.9% | cross-linked PsbS dimer content relative to total PsbS [8]: 39.5% | cross-linked PsbS dimer content relative to total PsbS [9]: 31.7% | cross-linked PsbS dimer content relative to total PsbS [10]: 50.4%
B1: PsbS protein (wild type, Arabidopsis thaliana), Q9XF91 60-265 (natural protein)
chain: T1 chain
